Earlier results as cited in article PMC5535146.
Where two headings read alike, the source gives them in different places.

Columns and labels:
calmodulin [1] = target: calmodulin (UniProt P0DP23)
calmodulin [2] = target: calmodulin (UniProt P0DP23); remark: listed apart in the source

Row | Substance | Kd (calmodulin [1]) [nM] | Kd (calmodulin [2]) [nM]
1 | CyaA adenylate cyclase AC (from UniProt P0DKX7) | 0.2 | 
2 | edema factor (from UniProt P40136) |  | 20
